Here are results for 2 molecules from patent US20060088524A1 (BOARD OF TRUSTEES OF THE UNIVERSITY OF ILLINOIS, published 2006).

For series [1], the target named is TF:VIIa complex (1:1 complex of rTF and factor VIIa on a phospholipid surface) (UniProt P08709).
The target of series [2] is T1, recombinant human tissue factor (rTF), membrane-anchored, HPC4-tagged, cytoplasmic domain truncated.
T1 chain: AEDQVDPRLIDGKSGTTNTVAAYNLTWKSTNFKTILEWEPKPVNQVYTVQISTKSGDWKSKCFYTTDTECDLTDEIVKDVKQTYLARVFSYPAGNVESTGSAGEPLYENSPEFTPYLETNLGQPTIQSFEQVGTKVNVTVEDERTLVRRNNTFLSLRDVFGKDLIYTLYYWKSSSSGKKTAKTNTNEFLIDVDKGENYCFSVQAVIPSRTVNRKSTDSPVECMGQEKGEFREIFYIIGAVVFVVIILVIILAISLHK

Consider coagulation factor X, for which, in series [1], the Km for factor X activation; TF-Nanodiscs, 10% PS, 90% PC worked out at 0.132 µM; the Km for factor X activation; TF-Nanodiscs, 20% PS, 80% PC came to 0.0686 µM; the Km for factor X activation; TF-Nanodiscs, 30% PS, 70% PC came to 0.0452 µM; the Km for factor X activation; TF-liposomes, 20% PS, 80% PC was determined as 0.0202 µM. In addition, in series [1], the Km, app for factor X activation; rTF in PCPS vesicles was 0.0202 µM and the Km, app for factor X activation; rTF-PCPS-nanoscale discs is 0.0686 µM.

B1: coagulation factor VIIa (protein)
chain: ANAFLEELRPGSLERECKEEQCSFEEAREIFKDAERTKLFWISYSDGDQCASSPCQNGGSCKDQLQSYICFCLPAFEGRNCETHKDDQLICVNENGGCEQYCSDHTGTKRSCRCHEGYSLLADGVSCTPTVEYPCGKIPILEKRNASKPQGRIVGGKVCPKGECPWQVLLLVNGAQLCGGTLINTIWVVSAAHCFDKIKNWRNLIAVLGEHDLSEHDGDEQSRRVAQVIIPSTYVPGTTNHDIALLRLHQPVVLTDHVVPLCLPERTFSERTLAFVRFSLVSGWGQLLDRGATALELMVLNVPRLMTQDCLQQSRKVGDSPNITEYMFCAGYSDGSKDSCKGDSGGPHATHYRGTWYLTGIVSWGQGCATVGHFGVYTRVSQYIEWLQKLMRSEPRPGVLLRAPFP
As for B1, the “procoagulant activity (plasma clotting) of TF-containing nanoscale discs” value in series [2] is “the resultant discs exhibit strong procoagulant activity”.
